Five molecules from paper PMC5305270 can be followed below.

The assay deals with T1, GST::DEP-1intra-DA (intracellular domain of C. elegans DEP-1 with the substrate trapping mutation D1241A, GST fusion), G5EGJ9.
T1 chain: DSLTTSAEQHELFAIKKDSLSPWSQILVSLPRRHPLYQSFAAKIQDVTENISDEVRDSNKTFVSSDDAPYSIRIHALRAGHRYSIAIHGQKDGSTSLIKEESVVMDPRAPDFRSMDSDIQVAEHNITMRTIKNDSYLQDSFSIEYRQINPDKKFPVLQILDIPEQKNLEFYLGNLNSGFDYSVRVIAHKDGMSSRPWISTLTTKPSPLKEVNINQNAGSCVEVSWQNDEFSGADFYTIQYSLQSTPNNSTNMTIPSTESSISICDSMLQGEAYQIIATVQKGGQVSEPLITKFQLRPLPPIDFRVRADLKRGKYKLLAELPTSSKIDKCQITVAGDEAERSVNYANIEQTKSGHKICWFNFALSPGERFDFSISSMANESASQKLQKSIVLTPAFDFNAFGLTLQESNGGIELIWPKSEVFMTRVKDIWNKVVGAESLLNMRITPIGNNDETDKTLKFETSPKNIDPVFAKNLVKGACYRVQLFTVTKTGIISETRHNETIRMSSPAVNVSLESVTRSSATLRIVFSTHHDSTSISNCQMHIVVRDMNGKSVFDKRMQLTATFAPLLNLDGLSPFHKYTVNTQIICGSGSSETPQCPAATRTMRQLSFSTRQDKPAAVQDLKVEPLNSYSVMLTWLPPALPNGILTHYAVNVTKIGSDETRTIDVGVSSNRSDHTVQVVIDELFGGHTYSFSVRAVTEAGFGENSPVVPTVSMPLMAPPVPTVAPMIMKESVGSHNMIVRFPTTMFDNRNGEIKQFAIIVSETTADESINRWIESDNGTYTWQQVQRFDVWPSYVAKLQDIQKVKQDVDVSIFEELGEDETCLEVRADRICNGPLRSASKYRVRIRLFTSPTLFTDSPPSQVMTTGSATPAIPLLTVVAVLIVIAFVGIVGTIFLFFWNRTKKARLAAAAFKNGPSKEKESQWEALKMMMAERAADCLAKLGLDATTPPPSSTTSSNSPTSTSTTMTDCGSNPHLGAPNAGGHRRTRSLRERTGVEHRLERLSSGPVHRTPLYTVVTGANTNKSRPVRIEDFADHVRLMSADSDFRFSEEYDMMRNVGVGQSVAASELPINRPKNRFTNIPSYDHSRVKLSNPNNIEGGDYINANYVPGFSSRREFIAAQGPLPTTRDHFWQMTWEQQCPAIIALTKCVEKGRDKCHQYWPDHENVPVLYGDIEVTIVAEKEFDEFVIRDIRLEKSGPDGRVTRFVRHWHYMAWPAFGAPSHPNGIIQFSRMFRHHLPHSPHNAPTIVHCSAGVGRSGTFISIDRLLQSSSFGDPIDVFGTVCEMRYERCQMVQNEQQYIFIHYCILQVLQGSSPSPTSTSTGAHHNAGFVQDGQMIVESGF
The assay can be described thus: GST pull-down, anti-GFP Western blot, densitometry. The settings on record: chain shown with the change; three independent experiments; band intensities normalized to input; parent: est. 100; read off a plot. (In western blotting, separated proteins are transferred to a membrane and probed.)

B1: PAT-3::GFP (wild type), Q27874 Y792A; Y804A (protein)
chain: ASDWKTGEVTGKVVEKSEFPCYSLSRDNYTCSACIQYHESCAWCGAPMFDEKKPYARCDSRAKLMEHGCPNSYIEDPATKLDITEDSKLSDQGQVESEEEAVQIKPQEMYVEIRPKSRVRFNVTYRQAVDYPVDLYYLMDLSYSMKDDKQKLSELGDLLAERMRTVTKNFRLGFGSFIDKKLMPFIDPRIEKQLSPCPTPCAEPYGFKHQMSLTTNTAKFKAEVDKAEISGNLDAPEGGFDAVVQALACNKTIGWRERARKMIVFSTDAGFHFAGDGRLAGVVEPNDGTCHLDREGYYTETLNQDYPSIALLHQMIKDRKANVIFAVTKNNQDLYTQLSNALPDVSSSVGVLANDSRNIVDLIEKEYLKISEKIIMVDNANASEGLKLTYRSMCLDGTTLKDTNVCEGIRVGDEVQFEVTLENTHCIDKRDFVLRIGPSGLDETLIVNVKVLCDCDCERQDRIVTNSADCNGGDMVCGVCRCKGGNVGKYCECNRPGMSTAALNEKCKRTNESAICEGRGVCNCGRCECNPRANPEEQISGEFCECDNFNCPRHDRKICAEHGECNCGKCICAPGWTGRACECPISTDSCLSANGKICNGKGECICGRCRCFDSPDGNRYSGAKCEICPTCPTKCVEYKNCVMCQQWQTGPLNETACDQCEFKVIPVEELPNLNETTPCQFVDPADDCTFYYLYYYDEATDNATVWVRKHKDCPPPVPVLAIVLGVIAGIVILGILLLLLWKLLTVLHDRSEYATFNNERLMAKWDTNENPIAKQATTTFKNPVAAGKAN
Consider B1, for which the percent of parent amounted to 13%.

B2: PAT-3::GFP (wild type), Q27874 TTT796-798AAA (protein)
chain: ASDWKTGEVTGKVVEKSEFPCYSLSRDNYTCSACIQYHESCAWCGAPMFDEKKPYARCDSRAKLMEHGCPNSYIEDPATKLDITEDSKLSDQGQVESEEEAVQIKPQEMYVEIRPKSRVRFNVTYRQAVDYPVDLYYLMDLSYSMKDDKQKLSELGDLLAERMRTVTKNFRLGFGSFIDKKLMPFIDPRIEKQLSPCPTPCAEPYGFKHQMSLTTNTAKFKAEVDKAEISGNLDAPEGGFDAVVQALACNKTIGWRERARKMIVFSTDAGFHFAGDGRLAGVVEPNDGTCHLDREGYYTETLNQDYPSIALLHQMIKDRKANVIFAVTKNNQDLYTQLSNALPDVSSSVGVLANDSRNIVDLIEKEYLKISEKIIMVDNANASEGLKLTYRSMCLDGTTLKDTNVCEGIRVGDEVQFEVTLENTHCIDKRDFVLRIGPSGLDETLIVNVKVLCDCDCERQDRIVTNSADCNGGDMVCGVCRCKGGNVGKYCECNRPGMSTAALNEKCKRTNESAICEGRGVCNCGRCECNPRANPEEQISGEFCECDNFNCPRHDRKICAEHGECNCGKCICAPGWTGRACECPISTDSCLSANGKICNGKGECICGRCRCFDSPDGNRYSGAKCEICPTCPTKCVEYKNCVMCQQWQTGPLNETACDQCEFKVIPVEELPNLNETTPCQFVDPADDCTFYYLYYYDEATDNATVWVRKHKDCPPPVPVLAIVLGVIAGIVILGILLLLLWKLLTVLHDRSEYATFNNERLMAKWDTNENPIYKQAAAAFKNPVYAGKAN
For the molecule B2, the percent of parent was 13%.

B3: PAT-3::GFP (wild type), Q27874 Y792A (protein)
chain: ASDWKTGEVTGKVVEKSEFPCYSLSRDNYTCSACIQYHESCAWCGAPMFDEKKPYARCDSRAKLMEHGCPNSYIEDPATKLDITEDSKLSDQGQVESEEEAVQIKPQEMYVEIRPKSRVRFNVTYRQAVDYPVDLYYLMDLSYSMKDDKQKLSELGDLLAERMRTVTKNFRLGFGSFIDKKLMPFIDPRIEKQLSPCPTPCAEPYGFKHQMSLTTNTAKFKAEVDKAEISGNLDAPEGGFDAVVQALACNKTIGWRERARKMIVFSTDAGFHFAGDGRLAGVVEPNDGTCHLDREGYYTETLNQDYPSIALLHQMIKDRKANVIFAVTKNNQDLYTQLSNALPDVSSSVGVLANDSRNIVDLIEKEYLKISEKIIMVDNANASEGLKLTYRSMCLDGTTLKDTNVCEGIRVGDEVQFEVTLENTHCIDKRDFVLRIGPSGLDETLIVNVKVLCDCDCERQDRIVTNSADCNGGDMVCGVCRCKGGNVGKYCECNRPGMSTAALNEKCKRTNESAICEGRGVCNCGRCECNPRANPEEQISGEFCECDNFNCPRHDRKICAEHGECNCGKCICAPGWTGRACECPISTDSCLSANGKICNGKGECICGRCRCFDSPDGNRYSGAKCEICPTCPTKCVEYKNCVMCQQWQTGPLNETACDQCEFKVIPVEELPNLNETTPCQFVDPADDCTFYYLYYYDEATDNATVWVRKHKDCPPPVPVLAIVLGVIAGIVILGILLLLLWKLLTVLHDRSEYATFNNERLMAKWDTNENPIAKQATTTFKNPVYAGKAN
For the molecule B3, the percent of parent came out at 10%.

B4: PAT-3::GFP (wild type), Q27874 Y804A (protein)
chain: ASDWKTGEVTGKVVEKSEFPCYSLSRDNYTCSACIQYHESCAWCGAPMFDEKKPYARCDSRAKLMEHGCPNSYIEDPATKLDITEDSKLSDQGQVESEEEAVQIKPQEMYVEIRPKSRVRFNVTYRQAVDYPVDLYYLMDLSYSMKDDKQKLSELGDLLAERMRTVTKNFRLGFGSFIDKKLMPFIDPRIEKQLSPCPTPCAEPYGFKHQMSLTTNTAKFKAEVDKAEISGNLDAPEGGFDAVVQALACNKTIGWRERARKMIVFSTDAGFHFAGDGRLAGVVEPNDGTCHLDREGYYTETLNQDYPSIALLHQMIKDRKANVIFAVTKNNQDLYTQLSNALPDVSSSVGVLANDSRNIVDLIEKEYLKISEKIIMVDNANASEGLKLTYRSMCLDGTTLKDTNVCEGIRVGDEVQFEVTLENTHCIDKRDFVLRIGPSGLDETLIVNVKVLCDCDCERQDRIVTNSADCNGGDMVCGVCRCKGGNVGKYCECNRPGMSTAALNEKCKRTNESAICEGRGVCNCGRCECNPRANPEEQISGEFCECDNFNCPRHDRKICAEHGECNCGKCICAPGWTGRACECPISTDSCLSANGKICNGKGECICGRCRCFDSPDGNRYSGAKCEICPTCPTKCVEYKNCVMCQQWQTGPLNETACDQCEFKVIPVEELPNLNETTPCQFVDPADDCTFYYLYYYDEATDNATVWVRKHKDCPPPVPVLAIVLGVIAGIVILGILLLLLWKLLTVLHDRSEYATFNNERLMAKWDTNENPIYKQATTTFKNPVAAGKAN
Turning to B4, the percent of parent was found to be 92%.

B5: PAT-3::GFP (wild type), Q27874 Y772A (protein)
chain: ASDWKTGEVTGKVVEKSEFPCYSLSRDNYTCSACIQYHESCAWCGAPMFDEKKPYARCDSRAKLMEHGCPNSYIEDPATKLDITEDSKLSDQGQVESEEEAVQIKPQEMYVEIRPKSRVRFNVTYRQAVDYPVDLYYLMDLSYSMKDDKQKLSELGDLLAERMRTVTKNFRLGFGSFIDKKLMPFIDPRIEKQLSPCPTPCAEPYGFKHQMSLTTNTAKFKAEVDKAEISGNLDAPEGGFDAVVQALACNKTIGWRERARKMIVFSTDAGFHFAGDGRLAGVVEPNDGTCHLDREGYYTETLNQDYPSIALLHQMIKDRKANVIFAVTKNNQDLYTQLSNALPDVSSSVGVLANDSRNIVDLIEKEYLKISEKIIMVDNANASEGLKLTYRSMCLDGTTLKDTNVCEGIRVGDEVQFEVTLENTHCIDKRDFVLRIGPSGLDETLIVNVKVLCDCDCERQDRIVTNSADCNGGDMVCGVCRCKGGNVGKYCECNRPGMSTAALNEKCKRTNESAICEGRGVCNCGRCECNPRANPEEQISGEFCECDNFNCPRHDRKICAEHGECNCGKCICAPGWTGRACECPISTDSCLSANGKICNGKGECICGRCRCFDSPDGNRYSGAKCEICPTCPTKCVEYKNCVMCQQWQTGPLNETACDQCEFKVIPVEELPNLNETTPCQFVDPADDCTFYYLYYYDEATDNATVWVRKHKDCPPPVPVLAIVLGVIAGIVILGILLLLLWKLLTVLHDRSEAATFNNERLMAKWDTNENPIYKQATTTFKNPVYAGKAN
As to B5, the percent of parent is 37%.
